Here are results for one molecule from patent US20060009380A1 (L OREAL, published 2006).

This experiment addresses T1, transglutaminase 3 (human, UniProt Q08188 2-693, limits assumed).
T1 sequence (looked up): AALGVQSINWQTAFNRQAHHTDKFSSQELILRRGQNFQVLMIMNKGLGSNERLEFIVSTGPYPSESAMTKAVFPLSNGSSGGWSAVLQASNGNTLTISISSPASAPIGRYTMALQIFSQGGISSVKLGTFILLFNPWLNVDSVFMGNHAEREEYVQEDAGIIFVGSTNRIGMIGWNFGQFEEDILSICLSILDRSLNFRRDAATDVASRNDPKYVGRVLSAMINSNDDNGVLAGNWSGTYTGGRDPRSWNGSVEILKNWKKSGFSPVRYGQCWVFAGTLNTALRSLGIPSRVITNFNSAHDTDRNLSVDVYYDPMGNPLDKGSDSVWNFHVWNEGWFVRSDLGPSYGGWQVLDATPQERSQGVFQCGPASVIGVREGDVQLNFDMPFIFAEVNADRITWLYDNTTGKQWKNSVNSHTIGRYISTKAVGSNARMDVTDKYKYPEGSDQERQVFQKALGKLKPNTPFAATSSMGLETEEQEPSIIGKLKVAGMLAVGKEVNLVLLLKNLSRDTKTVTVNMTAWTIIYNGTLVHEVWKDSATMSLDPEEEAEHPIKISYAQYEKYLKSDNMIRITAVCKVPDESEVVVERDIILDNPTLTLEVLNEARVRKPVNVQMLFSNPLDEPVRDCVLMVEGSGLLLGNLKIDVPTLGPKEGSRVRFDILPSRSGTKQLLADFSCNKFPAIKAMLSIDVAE
In words: affinity chromatography: CLSP on CNBr-sepharose, human epidermis extract loaded with calcium chloride, eluted with EDTA, held protein sequenced. As for the experimental part: The coupling efficiency was 0.95 mg of polypeptide per milliliter of balls. Human epidermis (0.83 g of abdominal skin obtained from plastic surgery and 100 g of plantar stratum corneum) was homogenized with polytron in 10 ml and 120 ml respectively of 10 mmol of Hepes buffer, pH 7.4, containing 150 mmol of sodium chloride, 0.1% (weight/volume) of triton X100 and a mixture of protease inhibitors (Complete™ EDTA-free of Roche Molecular diluted with […] of depepstatin).
The suspension is then centrifuged at 10,000 g for 10 minutes at 4° C. The supernatant is filtered at 0.22 and adjusted with 2.5 mmol of calcium chloride before passing at ambient temperature through the affinity column. The columns are then washed with 10 volumes of 10 mmol Hepes buffer, pH 7.4, containing 150 mmol of sodium chloride, 0.1% (weight/volume) of triton X100 and a mixture of protease inhibitors. The elution is carried out by using the same buffer that contains 5 mmol of EDTA instead of 2 mmol of calcium chloride.
The eluted proteins are subjected to a denaturing gel electrophoresis (SDS-PAGE) and after migration, they are colored with silver with a silver coloration kit of the Amersham Pharmacia Biotech Company and according to the recommendations of the manufacturer.

B1: CLSP (calmodulin-like skin protein), the polypeptide of the invention (other)
chain: AGELTPEEEAQYKKAFSAVDTDGNGTINAQELGAALKATGKNLSEAQLRKLISEVDSDGDGEISFQEFLTAARKARAGLEDLQVAFRAFDQDGDGHITVDELRRAMAGLGQPLPQEELDAMIREADVDQDGRVNYEEFARMLAQE
notes: also called skin protein similar to calmodulin
Turning to B1, the binding result was “binds”.
